Measurements published in US20260115332A1, “Fibroblast Activation Protein Alpha-Cleavable Pro-Peptides and Methods of Use” (The Regents of the University of California, priority 2022, published 2026).
Where no end group is shown, it is not given here.

Key:
[1] = Tumor dose per isotope
[2] = target: T1, recombinant human FAPα (Homo sapiens, UniProt Q12884); test: Multiplex substrate profiling by mass spectrometry (MSP-MS); format: biochemical; conditions: for # of cleavages on MS: top P4-P4′ peptides cleaved by human FAP alpha; for # of cleavages on MSP-MS: human FAP alpha
T1 sequence (Q12884 26-760 limits assumed): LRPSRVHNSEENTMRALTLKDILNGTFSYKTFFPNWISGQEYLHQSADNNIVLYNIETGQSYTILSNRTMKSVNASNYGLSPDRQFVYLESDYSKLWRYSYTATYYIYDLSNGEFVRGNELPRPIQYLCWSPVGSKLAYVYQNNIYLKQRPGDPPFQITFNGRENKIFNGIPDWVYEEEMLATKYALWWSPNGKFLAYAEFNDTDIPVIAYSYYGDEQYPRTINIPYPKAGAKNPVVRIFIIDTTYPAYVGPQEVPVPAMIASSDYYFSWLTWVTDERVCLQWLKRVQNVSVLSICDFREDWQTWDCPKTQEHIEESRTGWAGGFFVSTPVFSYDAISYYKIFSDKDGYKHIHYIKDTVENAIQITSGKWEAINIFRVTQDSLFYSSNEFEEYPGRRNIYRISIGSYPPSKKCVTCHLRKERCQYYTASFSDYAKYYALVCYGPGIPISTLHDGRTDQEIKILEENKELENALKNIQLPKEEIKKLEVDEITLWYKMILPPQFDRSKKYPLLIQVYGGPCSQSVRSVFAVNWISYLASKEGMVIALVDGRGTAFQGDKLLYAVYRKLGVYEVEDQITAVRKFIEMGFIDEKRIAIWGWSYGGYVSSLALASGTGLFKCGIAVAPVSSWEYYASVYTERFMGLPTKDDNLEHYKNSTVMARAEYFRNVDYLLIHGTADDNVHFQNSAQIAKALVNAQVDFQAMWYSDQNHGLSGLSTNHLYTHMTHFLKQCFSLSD
Description: Although much is known about the substrate preferences for FAPα from P4-P1, an optimal P4-P4′ substrate sequence for FAPα has never been defined. In this example, multiplex substrate profiling by mass spectrometry (MSP-MS) was performed to identify candidate FAPα P4-P4′ substrate sequences for potential inclusion in a FAPα targeted restricted interaction peptide (or “FRIP”).
Shown on the top of FIG. 3 is an Icelogo representing the cumulative amino acid preferences for recombinant human FAPα. Shown on the bottom of FIG. 3 is a heat map summarizing the amino acids that were most frequently incorporated at each site in the cleavage products. Lighter indicates an enriched amino acid. X=no preferred amino acid.
A list of the top P4-P4′ peptides cleaved by human FAP alpha as determined using the MSP-MS substrate profiling technology are shown in the following table, where X indicates an undefined amino acid site.

[3] = target: T1, recombinant human FAPα; test: Kinetics of FRET donor/acceptor 8 mer substrates under Michaelis-Menten conditions; format: biochemical; conditions: FRET donor/acceptor substrate adducts, human recombinant FAP alpha
Description: Three top hits, […] (SEQ ID NO:38), […] (SEQ ID NO:40), and […] (SEQ ID NO:42), were selected for further analysis. An 8 mer peptide bearing FRET donor-acceptor dyes on the N and C terminus was synthesized and evaluated as a substrate for recombinant human FAPα (RND Systems) under Michaelis-Menten conditions.
A table summarizing the kinetic properties of three of the top P4-P4′ 8 mer peptides emerging from the MSP-MS assay is provided below, where the kinetic properties were determined using FRET donor/acceptor substrate adducts and human recombinant FAP alpha.

| Compound | # of cleavages on MS [2] | other results |
| --- | --- | --- |
| CN(CCCN1CCN(C(=O)CN2CCN(CC(=O)O)CCN(CC(=O)O)CCN(CC(=O)O)CC2)CC1)c1ccc2nccc(C(=O)NCC(=O)N3CC(F)(F)C[C@H]3C#N)c2c1 [FAPI 46] |  | Tumor dose ([1]; Ac-225): 720 Gy/mCi; Tumor dose ([1]; Cu-64): 2 Gy/mCi; Tumor dose ([1]; Cu-67): 11 Gy/mCi; Tumor dose ([1]; Lu-177): 16 Gy/mCi; Tumor dose ([1]; Y-90): 42 Gy/mCi |
| GMGPFHIV | 12 |  |
| HIGPTAAY (also: FRET fluorophore/quencher labels) [tested as 8 mer FRET peptide] | 43 | Km [3]: 2.45 µM; kcat [3]: 0.2986 s⁻¹; # of cleavages on MSP-MS [2]: 43 |
| HQGPFWML (also: FRET labels) [tested as 8 mer FRET peptide] | 30 | Km [3]: 1.34 µM; kcat [3]: 0.1041 s⁻¹; # of cleavages on MSP-MS [2]: 30 |
| HYGPTVNK (also: FRET labels) [tested as 8 mer FRET peptide] | 28 | Km [3]: 2.7 µM; kcat [3]: 0.04031 s⁻¹; # of cleavages on MSP-MS [2]: 28 |
| XSGPDYQK | 14 |  |
| XXFPNMWS | 23 |  |
| XXGPKLTY | 28 |  |
| XXGSQVFS | 21 |  |
| XXHPTKSF | 16 |  |
| XXIARQPW | 14 |  |
| XXIPTNIR | 41 |  |
| XXMPEEVA | 17 |  |
| XXWPMGMY | 26 |  |
| YHGPLAHX | 98 |  |
